# Variants at the floor of the assay were thinned out.
# Experiments:
# biotinyl-Phe-oxazolone = assay: self-aminoacylation, catalytic enhancement (BFO) (fold over background); higher = more active; k-Seq, kA / k0A0; sequences stand for … in GGGAAUGGAUCCACAUCUACGAAUUC…UUCACUGCAGACUUGACGAAGCUG
# Procedure, shortened: (§1)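 Mutagenized RNA pools with a 21-nt variable region (0.43 μM) reacted with each biotinyl-aminoacyl-oxazolone at 2–1250 μM. Reactions ran in 50 μL HEPES/NaCl/KCl/MgCl2/CaCl2 buffer with 5% acetonitrile, pH 6.9–7.0, for 90 minutes at room temperature. Streptavidin-captured RNA was quantified by triplicate qPCR and Illumina sequencing, and per-sequence fraction reacted was fit to a pseudo-first-order model with 1000 bootstraps. Catalytic enhancement is median kA divided by the uncatalyzed rate, the low-activity peak of a bimodal Gaussian fit.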
# biotinyl-Val-oxazolone = assay: self-aminoacylation, catalytic enhancement (BVO) (fold over background); higher = more active; k-Seq, kA / k0A0; sequences stand for … in GGGAAUGGAUCCACAUCUACGAAUUC…UUCACUGCAGACUUGACGAAGCUG
# Procedure, shortened: as §1
# biotinyl-Trp-oxazolone = assay: self-aminoacylation, catalytic enhancement (BWO) (fold over background); higher = more active; k-Seq, kA / k0A0; sequences stand for … in GGGAAUGGAUCCACAUCUACGAAUUC…UUCACUGCAGACUUGACGAAGCUG
# Procedure, shortened: as §1
# biotinyl-Leu-oxazolone = assay: self-aminoacylation, catalytic enhancement (BLO) (fold over background); higher = more active; k-Seq, kA / k0A0; sequences stand for … in GGGAAUGGAUCCACAUCUACGAAUUC…UUCACUGCAGACUUGACGAAGCUG
# Procedure, shortened: as §1
# biotinyl-Met-oxazolone = assay: self-aminoacylation, catalytic enhancement (BMO) (fold over background); higher = more active; k-Seq, kA / k0A0; sequences stand for … in GGGAAUGGAUCCACAUCUACGAAUUC…UUCACUGCAGACUUGACGAAGCUG
# Procedure, shortened: as §1
# biotinyl-Ile-oxazolone = assay: self-aminoacylation, catalytic enhancement (BIO) (fold over background); higher = more active; k-Seq, kA / k0A0; sequences stand for … in GGGAAUGGAUCCACAUCUACGAAUUC…UUCACUGCAGACUUGACGAAGCUG
# Procedure, shortened: as §1
Sequence,self-aminoacylation (biotinyl-Phe-oxazolone),self-aminoacylation (biotinyl-Val-oxazolone),self-aminoacylation (biotinyl-Trp-oxazolone),self-aminoacylation (biotinyl-Leu-oxazolone),self-aminoacylation (biotinyl-Met-oxazolone),self-aminoacylation (biotinyl-Ile-oxazolone)
CCACACAUCAAGCAAUCAGUC [Fam1B.1 aminoacylation ribozyme variant],1.22,0.708,0.575,0.708,0.664,0.82
AUUACCCUGGUCAACCAGUGA [Fam2.1 aminoacylation ribozyme variant],39.2,3.78,7.15,6.76,6.42,3.9
AUUCACCUAUGUCAUCGCGUG [Fam2.2 aminoacylation ribozyme variant],65.3,4.89,7.34,10.4,8.26,4.86
GAGUUUGCUCAUAGUCGCAAG [Fam3.1 aminoacylation ribozyme variant],7.43,1.59,2.62,2.12,1.73,1.72
AUUACCCCGGUCAUCGAGUGA [Fam2.1 aminoacylation ribozyme variant],27.9,3.2,6.34,5.4,5.35,2.93
AUUACCCUGGUCACCGAGUGU [Fam2.1 aminoacylation ribozyme variant],16.6,2.55,5.42,5.37,4.97,2.65
AUUCACCUAGGACCUCGGGUG [Fam2.2 aminoacylation ribozyme variant],20.7,2.63,3.54,3.69,3.6,2.77
CCACUUCAAACAAUCCGUCUG [Fam1A.1 aminoacylation ribozyme variant],2.13,1.01,1.85,0.795,0.967,1.08
AUUCACCUAGGACAUCGGGCG [Fam2.2 aminoacylation ribozyme variant],15.1,2.38,2.27,2.79,2.2,2.31
CUACUUCAAACAAACGGUCUA [Fam1A.1 aminoacylation ribozyme variant],0.773,0.742,0.537,0.696,0.665,0.751
AUUACCCUGGUCAUCGUGUGA [Fam2.1 aminoacylation ribozyme variant],17.2,1.85,3.41,3.08,3.01,1.58
AAUCAACUAGGUCAUCGGGUG [Fam2.2 aminoacylation ribozyme variant],39.7,4.4,6.47,6.32,5.89,4.49
AAGUUUGAUAACAGUCGCAAG [Fam3.1 aminoacylation ribozyme variant],0.983,0.798,0.569,0.548,0.877,0.929
CUAGUUCAAACAAUCGGUGUG [Fam1A.1 aminoacylation ribozyme variant],1.63,0.947,1.79,1.63,1.4,0.992
CUACUUCAAACACUCGGUCAG [Fam1A.1 aminoacylation ribozyme variant],0.496,0.958,0.721,0.833,0.878,0.907
AAGUUUGCUUCUAGUCGCAAG [Fam3.1 aminoacylation ribozyme variant],1.54,1.23,1.11,1.2,0.998,1.39
AUUCACCGAGGUCAUCGGGUA [Fam2.2 aminoacylation ribozyme variant],25,3.97,4,3.22,2.93,3.33
AUUACCCUGGUCAUAGUGUGA [Fam2.1 aminoacylation ribozyme variant],0.987,0.977,0.799,0.978,1.12,0.955
AUUACCAUGGUCAUCGAGUGA [Fam2.1 aminoacylation ribozyme variant],12,4.75,10.7,9.28,8.61,4.49
AUUAACCUGGUCAACGAGUGA [Fam2.1 aminoacylation ribozyme variant],22.5,2.85,6.7,5.45,5.37,2.78
AAGUUGGCUAAUAGUGGCAAG [Fam3.1 aminoacylation ribozyme variant],0.667,0.731,1.13,0.655,0.931,0.654

# — the supplement of paper PMC9233669
